Assay results taken from patent publication US20240384250A1, “FIBROBLAST GROWTH FACTOR 23 MODULATING COMPOUNDS” (THE UAB RESEARCH FOUNDATION, priority 2021, published 2024).

Columns and labels:
[1] = biological target: Fc-tagged human FGFR4 ectodomain (human), P22455; experiment: SPR: Fc-FGFR4 on the chip, FGF23 with sKL or heparin in solution; details: remark: other sources report otherwise
[2] = biological target: Fc-tagged human FGFR4 ectodomain (human), P22455; experiment: SPR (BIAcore T200): Fc-FGFR4 amine-coupled to the chip, FGF23 injected at 1000-63 nM, 25 °C; details: remark: other sources report otherwise
[3] = biological target: Fc-tagged human FGFR4 ectodomain (human), P22455; experiment: SPR: Fc-FGFR4 on the chip, FGF23 with sKL (human ectodomain, self-made) in solution (FIG. 11F); details: remark: other sources report otherwise
[4] = biological target: Fc-tagged human FGFR4 ectodomain (human), P22455; experiment: SPR: Fc-FGFR4 on the chip, FGF23 with heparin in solution (FIG. 11E); details: remark: other sources report otherwise
[5] = biological target: Fc-tagged human FGFR1c ectodomain (human) (UniProt P11362); experiment: plate assay: 100 ng FGF23 coated, 400 ng purified sKL-N694Q or wildtype, then 200 ng Fc-FGFR1c (FIG. 25F)
Sequence of Fc-tagged human FGFR1c ectodomain (human) (P11362 22-376 limits assumed): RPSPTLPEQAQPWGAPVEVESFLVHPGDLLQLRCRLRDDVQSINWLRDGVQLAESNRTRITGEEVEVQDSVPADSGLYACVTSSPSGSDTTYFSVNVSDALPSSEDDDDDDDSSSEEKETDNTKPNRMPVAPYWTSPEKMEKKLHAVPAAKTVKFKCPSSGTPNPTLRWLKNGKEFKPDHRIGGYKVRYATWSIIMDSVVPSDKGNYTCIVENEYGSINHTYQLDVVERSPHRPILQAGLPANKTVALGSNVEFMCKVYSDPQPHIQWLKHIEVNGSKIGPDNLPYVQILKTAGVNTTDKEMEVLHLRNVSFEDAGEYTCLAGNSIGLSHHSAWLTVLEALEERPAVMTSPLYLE

Sequence of Fc-tagged human FGFR4 ectodomain (human), P22455 (P22455 22-369): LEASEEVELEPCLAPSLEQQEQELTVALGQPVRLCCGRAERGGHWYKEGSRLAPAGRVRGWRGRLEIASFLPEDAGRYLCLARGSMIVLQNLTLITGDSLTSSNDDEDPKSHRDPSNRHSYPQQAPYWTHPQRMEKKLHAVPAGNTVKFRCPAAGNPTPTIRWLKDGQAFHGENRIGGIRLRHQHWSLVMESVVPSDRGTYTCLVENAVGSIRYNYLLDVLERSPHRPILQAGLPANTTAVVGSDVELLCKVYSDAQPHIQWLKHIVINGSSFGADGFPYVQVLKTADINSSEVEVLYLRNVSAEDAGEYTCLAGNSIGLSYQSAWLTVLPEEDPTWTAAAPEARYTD

Binder	fold, effect of sKL on FGFR4 affinity for FGF23 against that of heparin [1]	Kd [2]	koff [2]	kon [2]	fold increase in binding affinity in the presence of sKL [3]	fold increase in binding affinity in the presence of heparin [4]	fold increase in formation of the trimeric FGF23/FGFR1c/sKL complex against wildtype sKL [5]
human FGF23, Q9GZV9 25-251 (ligand, UniProt Q9GZV9 25-251, looked up) YPNASPLLGSSWGGLIHLYTATARNSYHLQIHKNGHVDGAPHQTIYSALMIRSEDAGFVVITGVMSRRYLCMDFRGNIFGSHYFDPENCRFQHQTLENGYDVYHSPQYHFLVSLGRAKRAFLPGMNPPPYSQFLSRRNEIPLIHFNTPIPRRHTRSAEDDSERDPLNVLKPRARMTPAPASCSQELPSAEDNSPMASDPLGVVRGGRVNTHAGGTGPEGCRPFAKFI	4 to 5 fold	320 nM	0.04 s⁻¹	120000 M⁻¹ s⁻¹	13 fold	3 fold	
complex of FGF23 and sKL-N694Q (protein, part only; not given: FGF23 and C-terminal FLAG/His tag, not shown: small tags and cut ends) EPGDGAQTWARFSRPPAPEAAGLFQGTFPDGFLWAVGSAAYQTEGGWQQHGKGASIWDTFTHHPLAPPGDSRNASLPLGAPSPLQPATGDVASDSYNNVFRDTEALRELGVTHYRFSISWARVLPNGSAGVPNREGLRYYRRLLERLRELGVQPVVTLYHWDLPQRLQDAYGGWANRALADHFRDYAELCFRHFGGQVKYWITIDNPYVVAWHGYATGRLAPGIRGSPRLGYLVAHNLLLAHAKVWHLYNTSFRPTQGGQVSIALSSHWINPRRMTDHSIKECQKSLDFVLGWFAKPVFIDGDYPESMKNNLSSILPDFTESEKKFIKGTADFFALCFGPTLSFQLLDPHMKFRQLESPNLRQLLSWIDLEFNHPQIFIVENGWFVSGTTKRDDAKYMYYLKKFIMETLKAIKLDGVDVIGYTAWSLMDGFEWHRGYSIRRGLFYVDFLSQDKMLLPKSSALFYQKLIEKNGFPPLPENQPLEGTFPCDFAWGVVDNYIQVDTTLSQFTDLNVYLWDVHHSKRLIKVDGVVTKKRKSYCVDFAAIQPQIALLQEMHVTHFRFSLDWALILPLGNQSQVNHTILQYYRCMASELVRVNITPVVALWQPMAPNQGLPRLLARQGAWENPYTALAFAEYARLCFQELGHHVKLWITMNEPYTRQMTYSAGHNLLKAHALAWHVYNEKFRHAQNGKISIALQADWIEPACPFSQKDKEVAERVLEFDIGWLAEPIFGSGDYPWVMRDWLNQRNNFLLPYFTEDEKKLIQGTFDFLALSHYTTILVDSEKEDPIKYNDYLEVQEMTDITWLNSPSQVAVVPWGLRKVLNWLKFKYGDLPMYIISNGIDDGLHAEDDQLRVYYMQNYINEALKAHILDGINLCGYFAYSFNDRTAPRFGLYRYAADQFEPKASMKHYRKIIDSNGFPGPETLERFCPEEFTVCTECSFFHTRKS							3 fold
